Data as given in patent US20070014791A1, “Rage-related methods and copositions for treating glomerular injury” (priority 2003, published 2007).

B1: sRAGE: murine soluble RAGE, the extracellular ligand binding domain of RAGE (protein, UniProt Q62151 23-340, looked up)
extracellular domain: GQNITARIGEPLVLSCKGAPKKPPQQLEWKLNTGRTEAWKVLSPQGGPWDSVARILPNGSLLLPATGIVDEGTFRCRATNRRGKEVKSNYRVRVYQIPGKPEIVDPASELTASVPNKVGTCVSEGSYPAGTLSWHLDGKLLIPDGKETLVKEETRRHPETGLFTLRSELTVIPTQGGTHPTFSCSFSLGLPRRRPLNTAPIQLRVREPGPPEGIQLLVEPEGGIVAPGGTVTLTCAISAQPPPQVHWIKDGAPLPLAPSPVLLLPEVGHEDEGTYSCVATHPSHGPQESPPVSIRVTETGDEGPAEGSVGESGLGTLA
modifications: extracellular domain

Key:
[1] = test system: male BALB/c mice; details: ADR 10.5 mg/kg IV, up to 6 weeks; cited from earlier work
[2] = test system: male BALB/c mice treated with adriamycin (ADR); assay: ADR-induced glomerular injury in BALB/c mice: kidney weight and mesangial morphometry (PAS staining); type: in vivo, mouse; details: for kidney weight/body weight ratio: sRAGE 100 μg per day once daily, vs. PBS-treated mice; for mesangial area / mesangial/glomerular area: sRAGE 100 μg per day, compared with PBS treatment, PAS staining
Protocol: (§1) Male BALB/c mice at the age of six weeks received one intravenous dose of adriamycin (ADR), 10.5 mg/kg. Immediately after injection of ADR, mice received once daily administration of murine soluble RAGE, the extracellular ligand binding domain of RAGE, 100 μg per day, beginning immediately at the time of ADR treatment, and continued until the day of sacrifice.
Dissected kidneys were fixed in buffered formalin (10%) overnight and then routinely processed for light microscopy. Fixed paraffin-embedded tissues were cut (3 μm thick) and mounted on slides coated with 3-aminopropyltriethoxy silane (Sigma) followed by incubation at 37° C. overnight. Light microscopic views after staining with periodic acid Schiff (PAS) were scanned into a computer and the quantification of areas of mesangial matrix and glomerulus was performed using a Zeiss microscope and image analysis system (MediaCybernetics). To calculate mesangial area, only nuclei-free regions were included. Forty glomeruli from each animal were selected at random on the stained sections (20 from the outer region and 20 from the inner region). Morphometry was performed by investigators blinded to the experimental protocol.
To address the concept that RAGE may be involved in the pathogenesis of ADR-mediated FSGS, a single injection of ADR, 10.5 mg/kg, to male BALB/c mice at age 6 weeks was administered. ADR-treated mice received once daily administration of murine soluble RAGE, the extracellular ligand binding domain of RAGE, 100 μg per day, beginning immediately at the time of ADR treatment, and continued until the day of sacrifice. Other ADR-treated mice received vehicle, PBS.

[3] = test system: male BALB/c mice treated with adriamycin (ADR); assay: ADR-induced albuminuria in BALB/c mice: 24 hr urine albumin/creatinine; type: in vivo, mouse; details: sRAGE 100 μg per day, mean±SE
Protocol: as §1
Twenty-four hour urine collection was obtained from each animal using metabolic cages. Urine albumin and creatinine were determined using Albuwell M and creatinine assays from Exocell (Philadelphia, Pa.) according to the manufacturer's instructions.
The key test of these concepts was the degree to which blockade of RAGE would suppress the development of albuminuria. Mice were placed in metabolic cages and 24 hr urine collected. Urine levels of albumin and creatinine were determined; results are reported as μg albumin/μg creatinine. […] At six weeks, the results were similarly striking.

Molecule | mice that developed hematuria [1] | mice that developed leukocyturia [1] | kidney weight/body weight ratio ([2]; 2 weeks after ADR 10.5 mg/kg) | mesangial area ([2]; 2 weeks after ADR) | mesangial/glomerular area ([2]; 2 weeks after ADR) | kidney weight/body weight ratio ([2]; 6 weeks after ADR 10.5 mg/kg) | mesangial area ([2]; 6 weeks after ADR) | mesangial/glomerular area ([2]; 6 weeks after ADR) | urine albumin/creatinine ([3]; 2 weeks after ADR, p<0.05 vs. PBS-treated mice receiving ADR (809.55±365.85)) | urine albumin/creatinine ([3]; 6 weeks after ADR, p<0.01 vs PBS/ADR (1,362.96±987.97))
COc1cccc2c1C(=O)c1c(O)c3c(c(O)c1C2=O)C[C@@](O)(C(=O)CO)C[C@@H]3O[C@H]1C[C@H](N)[C@H](O)[C@H](C)O1 [ADR, adriamycin] | 35.7% | 53.6% |  |  |  |  |  |  |  | 
B1 |  |  | significantly decreased | significantly decreased | significantly decreased | significantly decreased | significantly decreased | significantly decreased | 191.08±49.93 μg albumin/μg creatinine | 249.76±283.19 μg albumin/μg creatinine
